Experimental data as given in US20250011468A1.

Target: human plasma-derived FIXa (Haematologic Technologies Inc) (human) (UniProt P00740)
Assay: cell-based or functional assay

human plasma-derived FIXa (Haematologic Technologies Inc) (human), sequence (P00740 47-191, chain 1 of 2): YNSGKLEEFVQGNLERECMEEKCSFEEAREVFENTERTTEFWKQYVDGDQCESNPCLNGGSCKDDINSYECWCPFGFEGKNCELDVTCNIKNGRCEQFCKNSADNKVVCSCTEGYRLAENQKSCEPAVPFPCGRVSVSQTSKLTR
human plasma-derived FIXa (Haematologic Technologies Inc) (human), sequence (P00740 227-461, chain 2 of 2): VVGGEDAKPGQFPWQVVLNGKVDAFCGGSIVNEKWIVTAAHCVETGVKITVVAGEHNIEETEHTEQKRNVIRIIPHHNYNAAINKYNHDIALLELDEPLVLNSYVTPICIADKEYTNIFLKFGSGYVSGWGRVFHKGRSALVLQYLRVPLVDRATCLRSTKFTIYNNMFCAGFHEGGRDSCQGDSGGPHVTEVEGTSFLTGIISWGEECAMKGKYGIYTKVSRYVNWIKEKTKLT

FXa generation rate at 3.2 nM mAb	FXa generation rate at 6.3 nM mAb	FXa generation rate at 12.5 nM mAb	FXa generation rate at 25 nM mAb	FXa generation rate at 50 nM mAb	FXa generation rate at 100 nM mAb	FXa generation rate at 200 nM mAb	Peak stimulatory activity relative to 224F3 (fold relative to 224F3)	Stimulation index at 3260 nM OA antibody	Binder
20 pM/min	17.4 pM/min	14.7 pM/min	9 pM/min	9 pM/min	7.2 pM/min	5.5 pM/min	1	–	224F3 (anti-FIXa reference antibody, Scheiflinger et al.) (antibody, from another filing, human IgG1, V domains shown) VH: QVQMQQSGAELVKPGASVKLSCKASGYTFTSQDINWVRQRPEQGLEWIGWIFPGDGSTKYNEKLKGKATLTTDKSSSTAFMQLSRLTSEDSAVYFCARSAYYRYDGSYYYAMDYWGQGTSVTVSS VL: QIVLTQSPAIMSASLGEEITLTCSASSSVSYMLWYQQKSGTSPKLLIYTTSNLASGVPSRFSGTGSGTFYSLTISSVEAEDAADYYCHQWSSYPRTFGGGTKLEIKR
–	–	–	–	–	–	–	–	< 10 fold	mAb1-1582 (monovalent one-armed version of the anti-FIXa antibody 224F3) (antibody, from another filing, V domains shown) VH: QVQMQQSGAELVKPGASVKLSCKASGYTFTSQDINWVRQRPEQGLEWIGWIFPGDGSTKYNEKLKGKATLTTDKSSSTAFMQLSRLTSEDSAVYFCARSAYYRYDGSYYYAMDYWGQGTSVTVSS VL: QIVLTQSPAIMSASLGEEITLTCSASSSVSYMLWYQQKSGTSPKLLIYTTSNLASGVPSRFSGTGSGTFYSLTISSVEAEDAADYYCHQWSSYPRTFGGGTKLEIKR
